Assay results: paper PMC9255746

Molecular target: Paracoccidioides americana (Pb03) Cbp1 (Paracoccidioides americana (Pb03))
Test: crystal structure

With “Paracoccidioides americana (Pb03) Cbp1 (natural protein)” the stoichiometry N was 2.
